Results as given in patent US11661461B2, “Phospho-Rab antibodies, assays and methods of use thereof” (Denali Therapeutics Inc., priority 2017, dated 2023).

What was measured:
LRRK2 = target: T1, LRRK2 (Rattus norvegicus, UniProt F1LNJ1); assay: 10-day oral dosing study in rats, pT73-Rab10 and pS935-LRRK2 western blot; type: in vivo; conditions: for pT73-Rab10, Brain / pT73-Rab10, Lung / pS935-LRRK2, Brain / pS935-LRRK2, Lung: rats, daily oral 10 days, mean with SEM; for pT73-Rab10, Brain / pT73-Rab10, Lung: normalized to actin and vehicle control group; for pS935-LRRK2, Brain / pS935-LRRK2, Lung: normalized to vinculin and vehicle control group
T1 construct: from tissue; host or cells: rat brain and lung (in vivo dosing)
Experimental: Dose-dependent inhibition of pT73-Rab10 was tested in a 10-day oral dosing study in rats. Rats were dosed daily with the LRRK2 Inhibitor B at a dose of 10 mg/kg, 30 mg/kg, or 45 mg/kg. Tissues (brain and lung) were harvested, homogenized and analyzed by western blot. […] Signals from dosed groups were normalized to vehicle control group. Data were presented as mean with SEM.

[1] = target: T2, phosphorylated Rab10 in lysates of HEK cells overexpressing LRRK2 (Homo sapiens, UniProt P61026); assay: Sandwich ELISA (diagnostic), HEK cells overexpressing LRRK2; type: binding; conditions: for Sandwich ELISA (diagnostic), Ratio: DMSO / LRRK2 inhibitor A RLU; for Sandwich ELISA (diagnostic) HEK cells overexpressing LRRK2, DMSO (RLU mean ± SD): DMSO treated cells; for Sandwich ELISA (diagnostic) HEK cells overexpressing LRRK2, LRRK2 inhibitor A (RLU mean ± SD): cells treated with LRRK2 inhibitor A
T2 construct: expressed in transfected cells; host or cells: HEK cells overexpressing LRRK2
T2 sequence (P61026 1-200): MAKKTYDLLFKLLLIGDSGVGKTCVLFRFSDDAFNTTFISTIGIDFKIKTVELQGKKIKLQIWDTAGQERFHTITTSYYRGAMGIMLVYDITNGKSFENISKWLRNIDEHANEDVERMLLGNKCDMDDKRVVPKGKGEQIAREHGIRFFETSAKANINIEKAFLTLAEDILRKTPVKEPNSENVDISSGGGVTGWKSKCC
Experimental: Sandwich ELISA (Diagnostic) with Anti-Phospho-Rab10 Antibody as the Capture Antibody:
ELISA plates were prepared by coating white Nunc MaxiSorp 384 well plates (Thermo Fisher #460372/Sigma #P6491) with capture antibody for 1 hour at room temperature on a shaking platform. The capture antibody was purified anti-phospho-Rab10 clone 19-4 diluted to 1 ug/mL in carbonate-bicarbonate buffer, and 15 uL/well of coating solution was added to the plate before incubation. Plates were then washed 3× with TBST on a BioTek plate washer. For all subsequent blocking/incubation steps, Pierce Starting Block T20 (TBS) was used (Thermo Fisher #37543). Plates were blocked […] in this solution using 80 uL/well and washed 3× as before. Afterwards samples of cell lysates were added (neat with no dilution) using 30 uL/well and incubated 1 hour at room temperature on a shaking platform. After another 3× wash detection antibody (Creative Diagnostics DCABH 13141, or Abcam, ab104859, 2 ug/mL) was added using 30 uL/well. After 60 minute incubation at room temperature and washing 3×, the secondary anti-species conjugate was added (anti-rabbit HRP antibody (Jackson ImmunoResearch 111-035-144) diluted 1:20000 in assay diluent) at 30 uL/well. After a 60 minute incubation, plates were washed 3× as before. The HRP substrate (Supersignal ELISA Femto HRP substrate—Thermo Fisher #37075) was prepared during this time by mixing both components and equilibrating to room temperature. 50 uL/well of substrate was added to plates, which then were covered and briefly incubated for 1-2 minutes on a shaker platform. Afterwards plates were read on the Synergy plate reader to measure relative light units (RLU).
Sandwich ELISA (Diagnostic) with Anti-Rab10 (Total) Antibody as the Capture Antibody:
ELISA plates were prepared by coating white Nunc MaxiSorp 384 well plates (Thermo Fisher #460372/Sigma # P6491) with capture antibody overnight at 4° C. on a shaking platform. The capture antibodies (anti-Rab10 antibody from either Creative Diagnostics, DCABH-13141, or Abcam, ab104859) were diluted to […] (or 1:100 if the concentration not known) in carbonate-bicarbonate buffer, and 15 uL/well of coating solution was added to the plate before incubation. After this plates were washed 3× with TBST on a BioTek plate washer. For all subsequent blocking/incubation steps, Pierce Starting Block (TBS) (no Tween added) was used (Thermo Fisher #37542). Plates were blocked for 1 hour at room temperature in this solution using 80 uL/well and washed 3× as before. Afterwards samples were added (with lysates being diluted 1:20 in the assay diluent) using 30 uL/well and incubated 2 hours at room temperature on a shaking platform. After another 3× wash detection antibodies were added (diluted to 1 ug/mL for purified antibodies or 1:2 for supernatants) using 30 uL/well. After 90 minute incubation at room temperature and washing 3× the secondary anti-species conjugate was added (anti-rabbit HRP antibody (Jackson ImmunoResearch 111-035-144) diluted 1:20000 in assay diluent) at 30 uL/well. After a 45 minute incubation plates were washed 3× as before. The HRP substrate (Supersignal ELISA Femto HRP substrate—Thermo Fisher #37075) was prepared during this time by mixing both components and equilibrating to room temperature. 50 uL/well of substrate was added to plates, which then were covered and briefly incubated for 1-2 minutes on a shaker platform. Afterwards plates were read on the Synergy plate reader to measure relative light units (RLU).

[2] = target: T3, endogenous phosphorylated Rab10 in human PBMC (Homo sapiens, UniProt P61026); assay: Western blot of human PBMC with anti-pT73-Rab10 antibodies; type: binding
T3 construct: Strong endogenous phosphorylated Rab10 or phosphorylated Rab8a in human PBMC; host or cells: human PBMC
T3 sequence (P61026 1-200): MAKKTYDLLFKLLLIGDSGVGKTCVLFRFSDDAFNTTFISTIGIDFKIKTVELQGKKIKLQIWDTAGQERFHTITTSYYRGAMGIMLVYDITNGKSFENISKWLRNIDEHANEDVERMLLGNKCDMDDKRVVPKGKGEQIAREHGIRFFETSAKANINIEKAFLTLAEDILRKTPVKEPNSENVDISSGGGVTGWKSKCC

T1 sequence (F1LNJ1 1-2526): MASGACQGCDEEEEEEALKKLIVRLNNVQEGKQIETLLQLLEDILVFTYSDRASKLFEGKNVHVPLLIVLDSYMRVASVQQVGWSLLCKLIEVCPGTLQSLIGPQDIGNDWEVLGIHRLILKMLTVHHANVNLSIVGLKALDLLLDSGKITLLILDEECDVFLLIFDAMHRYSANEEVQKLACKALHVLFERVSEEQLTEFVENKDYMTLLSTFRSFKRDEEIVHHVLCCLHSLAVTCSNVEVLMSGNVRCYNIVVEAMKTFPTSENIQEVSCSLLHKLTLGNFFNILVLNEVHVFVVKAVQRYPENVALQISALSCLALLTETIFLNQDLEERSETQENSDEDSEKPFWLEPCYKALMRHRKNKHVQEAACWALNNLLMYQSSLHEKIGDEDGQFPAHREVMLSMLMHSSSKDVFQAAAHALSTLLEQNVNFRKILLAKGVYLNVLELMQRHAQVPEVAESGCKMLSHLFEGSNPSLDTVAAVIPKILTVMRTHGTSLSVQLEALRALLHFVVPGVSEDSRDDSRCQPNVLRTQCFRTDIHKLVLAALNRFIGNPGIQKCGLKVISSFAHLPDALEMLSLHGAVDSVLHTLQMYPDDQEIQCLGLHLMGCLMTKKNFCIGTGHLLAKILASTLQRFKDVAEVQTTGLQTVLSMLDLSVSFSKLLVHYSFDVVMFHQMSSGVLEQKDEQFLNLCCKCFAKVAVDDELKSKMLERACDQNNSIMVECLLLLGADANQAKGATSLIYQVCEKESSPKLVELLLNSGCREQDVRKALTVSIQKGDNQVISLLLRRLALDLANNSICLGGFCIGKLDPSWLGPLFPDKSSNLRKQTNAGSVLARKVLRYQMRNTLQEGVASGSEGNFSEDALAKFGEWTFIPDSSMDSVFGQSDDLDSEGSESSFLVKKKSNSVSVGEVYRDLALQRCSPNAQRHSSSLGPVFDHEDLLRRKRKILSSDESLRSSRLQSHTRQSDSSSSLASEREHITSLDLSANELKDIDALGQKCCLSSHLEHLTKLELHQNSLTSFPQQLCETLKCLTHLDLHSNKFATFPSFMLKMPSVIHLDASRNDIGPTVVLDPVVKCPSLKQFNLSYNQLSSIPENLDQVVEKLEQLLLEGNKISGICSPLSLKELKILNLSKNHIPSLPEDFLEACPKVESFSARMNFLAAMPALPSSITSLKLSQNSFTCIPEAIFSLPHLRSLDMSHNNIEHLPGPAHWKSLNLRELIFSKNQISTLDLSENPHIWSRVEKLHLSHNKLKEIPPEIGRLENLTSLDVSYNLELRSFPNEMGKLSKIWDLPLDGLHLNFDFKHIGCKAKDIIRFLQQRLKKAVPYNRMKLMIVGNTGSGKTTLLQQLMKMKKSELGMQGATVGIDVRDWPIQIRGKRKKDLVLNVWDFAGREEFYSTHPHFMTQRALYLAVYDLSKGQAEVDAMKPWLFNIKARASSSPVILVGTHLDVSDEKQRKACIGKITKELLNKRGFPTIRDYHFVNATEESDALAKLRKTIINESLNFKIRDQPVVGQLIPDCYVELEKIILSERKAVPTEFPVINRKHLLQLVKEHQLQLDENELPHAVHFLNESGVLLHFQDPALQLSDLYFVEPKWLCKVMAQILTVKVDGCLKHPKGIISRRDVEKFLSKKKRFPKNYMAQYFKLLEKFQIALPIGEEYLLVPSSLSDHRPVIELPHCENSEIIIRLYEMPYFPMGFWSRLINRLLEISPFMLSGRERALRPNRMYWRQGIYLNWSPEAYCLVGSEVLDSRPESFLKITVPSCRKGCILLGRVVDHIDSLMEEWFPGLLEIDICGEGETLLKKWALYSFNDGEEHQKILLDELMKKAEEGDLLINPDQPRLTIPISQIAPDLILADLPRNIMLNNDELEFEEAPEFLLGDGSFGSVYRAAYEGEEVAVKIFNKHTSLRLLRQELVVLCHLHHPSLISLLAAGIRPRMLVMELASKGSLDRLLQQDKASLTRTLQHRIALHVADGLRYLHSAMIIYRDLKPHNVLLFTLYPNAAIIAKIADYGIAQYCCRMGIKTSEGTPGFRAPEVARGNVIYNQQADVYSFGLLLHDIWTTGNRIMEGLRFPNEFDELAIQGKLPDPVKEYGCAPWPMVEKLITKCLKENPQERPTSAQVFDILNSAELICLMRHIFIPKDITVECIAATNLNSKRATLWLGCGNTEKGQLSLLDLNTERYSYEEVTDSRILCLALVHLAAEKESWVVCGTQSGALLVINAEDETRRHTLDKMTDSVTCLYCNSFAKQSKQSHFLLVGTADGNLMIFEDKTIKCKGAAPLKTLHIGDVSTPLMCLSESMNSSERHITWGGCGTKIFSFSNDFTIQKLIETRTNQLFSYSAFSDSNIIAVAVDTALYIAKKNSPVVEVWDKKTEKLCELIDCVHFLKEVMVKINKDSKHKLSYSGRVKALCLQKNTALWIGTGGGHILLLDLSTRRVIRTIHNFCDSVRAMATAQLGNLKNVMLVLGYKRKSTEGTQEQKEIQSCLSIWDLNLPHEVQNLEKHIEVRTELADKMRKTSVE

CNc1nc(Nc2cn(C(C)(C)C#N)nc2C)ncc1C(F)(F)F [LRRK2 Inhibitor B, 2-methyl-2-(3-methyl-4-(4-(methylamino)-5-(trifluoromethyl)pyrimidin-2-ylamino)-1H-pyrazol-1-yl)propanenitrile]
dephosphorylation of pS935-LRRK2 and pT73-Rab10 (LRRK2; rats, 10, 30 or 45 mg/kg daily oral, 10 days, brain and lung): comparable dose-dependent dephosphorylation
pT73-Rab10, Brain (LRRK2; High dose (doses 10, 30, 45 mg/kg), N = 5): 0.225 ± 0.0394
pT73-Rab10, Lung (LRRK2; High dose): 0.109 ± 0.0126
pS935-LRRK2, Brain (LRRK2; High dose): 0.04 ± 0.016
pS935-LRRK2, Lung (LRRK2; High dose): 0.076 ± 0.022
pT73-Rab10, Brain (LRRK2; Low dose (doses 10, 30, 45 mg/kg), N = 6): 0.676 ± 0.102
pT73-Rab10, Lung (LRRK2; Low dose): 0.25 ± 0.0126
pS935-LRRK2, Brain (LRRK2; Low dose): 0.693 ± 0.164
pS935-LRRK2, Lung (LRRK2; Low dose): 0.295 ± 0.026
pT73-Rab10, Brain (LRRK2; Medium dose (doses 10, 30, 45 mg/kg), N = 6): 0.268 ± 0.0745
pT73-Rab10, Lung (LRRK2; Medium dose): 0.133 ± 0.0137
pS935-LRRK2, Brain (LRRK2; Medium dose): 0.086 ± 0.021
pS935-LRRK2, Lung (LRRK2; Medium dose): 0.094 ± 0.012

B1: Clone 133-2: anti-phosphorylated (pT73) Rab10 rabbit monoclonal antibody; VH SEQ ID NO:31, VL SEQ ID NO:35 (antibody, V domains shown)
VH: METGLRWLLLVAVLKGVQCQEQLVESGGGLVQPEGSLTLTCKASGFDLSSHYYMCWVRQAPGKGLEWIVCISNGSGNTYYASWAKGRFTISKTSSTTVTLHMTSLTVADTATYFCARNFGSNYGDAFDPWGPGTLVTVSS
VL: MDTRAPTQLLGLLLLWLPGATFAQVLTQTPSPVSAAVGGTVTISCQSSKSVYSNNYLSWYQQKPGQPPKLLIYSASILASGVPSRFSGSGSGTQFTLTISGVQCDDAATYYCQGSYAGSGWYIGFGGGTEVVVK
Sandwich ELISA (diagnostic), Ratio [1]: 2.25
Sandwich ELISA (diagnostic) HEK cells overexpressing LRRK2, DMSO (RLU mean ± SD) [1]: 18605 ± 4874 RLU
Sandwich ELISA (diagnostic) HEK cells overexpressing LRRK2, LRRK2 inhibitor A (RLU mean ± SD) [1]: 8265 ± 1428 RLU

B2: Clone 19: anti-phosphorylated (pT73) Rab10 rabbit monoclonal antibody; VH SEQ ID NO:11, VL SEQ ID NO:13 (antibody, V domains shown)
VH: METGLRWLLLVAVLKGVQCQSVEESGGRLVTPGTPLTLTCTVSGFSLSSYAMVWVRQAPGKGLEYIGLISRSGVTYYATWAKGRFTISKASTTVDLKIASPTTGDTATYFCVRDYDSAGWSGFTIWGPGTLVTVSA
VL: MDTRAPTQLLGLLLLWLPGAICDPVMTQTPSSTSAAVGGTVTINCQSSQSVYGNNYLSWYQQKPGQPPKLLIYKASTLASGVPSRSVGSGSGTQFTLTISDLECDDAATYYCAGAASDTRFFGGGTELVVN
detection of endogenous phosphorylated Rab10 signals in human PBMC by western blot ([2]; antibody at 1 ug/ml): detected endogenous phosphorylated Rab signals
Western blot Human PBMC Ratio of DMSO/LRRK2 inhibitor A (mean ± SEM) ([2]; band intensity normalized with Actin control for each of DMSO and LRRK2 inhibitor A, antibody 1 ug/ml): 3.39 ± 0.89

B3: Clone 247-8: anti-phosphorylated (pT73) Rab10 rabbit monoclonal antibody; VH SEQ ID NO:47, VL SEQ ID NO:51 (antibody, V domains shown)
VH: METGLRWLLLVAVLKGVQCQSVEESGGRLVTPGTPLTLTCTVSGFSLSSYAMGWVRQAPGKGLEYIGIISRSGITYYATWAKGRFTISKASTTVDLRIASPTTEDTATFFCVRDYDSSGWSGFNIWGPGTLVTVSL
VL: MDTRAPTQLLGLLLLWLPGAICDPVMTQTPSSTSAAVGGTVTINCQSSQSVYGNNYLSWFQQKPGQPPKLLIYKASTLASGVPSRFKGSGSGTQFTLTISGVQCDDAATYYCAGAYSDNRVFGGGTEVVVK
Sandwich ELISA (diagnostic), Ratio [1]: 7.20
Sandwich ELISA (diagnostic) HEK cells overexpressing LRRK2, DMSO (RLU mean ± SD) [1]: 13096 ± 1715 RLU
Sandwich ELISA (diagnostic) HEK cells overexpressing LRRK2, LRRK2 inhibitor A (RLU mean ± SD) [1]: 1820 ± 276 RLU

B4: Clone 256-6: anti-phosphorylated (pT73) Rab10 rabbit monoclonal antibody; VH SEQ ID NO:53, VL SEQ ID NO:56 (antibody, V domains shown)
VH: METGLRWLLLVAVLKGVQCQSVEESGGRLVTPGTPLTLTCTVSGFSLSNYAMVWVRQAPGKGLEYIGLISRSGVTYYATWAKGRFTISKASTTVDLKIASPTTGDTATYFCVRDYDANGWSGFTIWGPGTLVTVSA
VL: MDTRAPTQLLGLLLLWLPGAICDPVMTQTPSSTSAAVGGTVTINCQSSQSVYGNNYLSWYQQKPGQPPKLLIYKASTLASGVPSRFKGSGSGTQFTLTISDLDCDDAATYYCAGAASDTRFFGGGTEVVVK
Sandwich ELISA (diagnostic), Ratio [1]: 77.37
Sandwich ELISA (diagnostic) HEK cells overexpressing LRRK2, DMSO (RLU mean ± SD) [1]: 212085 ± 27432 RLU
Sandwich ELISA (diagnostic) HEK cells overexpressing LRRK2, LRRK2 inhibitor A (RLU mean ± SD) [1]: 2741 ± 309 RLU

B5: Clone 153-2: anti-phosphorylated (pT73) Rab10 rabbit monoclonal antibody; VH SEQ ID NO:39, VL SEQ ID NO:43 (antibody, V domains shown)
VH: METGLRWLLLVAVLKGVQCQSVEESGGRLVTPGTPLTLTCTASGFSLSTYYMSWVRQAPGKGLEWIGIINTGGIVHYANWVRGRFTISKTSTTVDLRITSPTAEDTATYFCARAYSADRLDLWGQGTLVTVSS
VL: MDTRAPTQLLGLLLLWLPGATFAAVLTQTPSPVSAAVGGTVTISCQSSESVYGNNRLSWYQQKPGQPPKLLMYYASTLASGVPSRFRGSGSGTQFTLTISDVQCDDAASYYCLGGYKRDSNNAFGGGTEVVVK
Sandwich ELISA (diagnostic), Ratio [1]: 141.26
Sandwich ELISA (diagnostic) HEK cells overexpressing LRRK2, DMSO (RLU mean ± SD) [1]: 596606 ± 80346 RLU
Sandwich ELISA (diagnostic) HEK cells overexpressing LRRK2, LRRK2 inhibitor A (RLU mean ± SD) [1]: 4223 ± 293 RLU
